# Results reported in patent publication US20210145976A1.
# B1: SEQ ID NO 205 (designed binder)
# chain: MLPAPKNLVVSRVTEDSARLSWTAPDAAFDSFDIDYDEPAWNGEAIVLTVPGSERSYDLTGLKPGTEYRVFIYGVKGGNTSWPLSAIFTT
# B2: SEQ ID NO 206 (designed binder)
# chain: MLPAPKNLVVSRVTEDSARLSWTAPDAAFDSFDIEYDELWKNGEAIVLTVPGSERSYDLTGLKPGTEYRVFIYGVKGGYGSFPLSAIFTT
# B3: SEQ ID NO 47 (designed binder)
# chain: MLPAPKNLVVSRVTEDSARLSWTAPDAAFDSFTIWYAEALGDGEAIVLTVPGSERSYDLTGLKPGTEYFVDIYGVKGGFWSLPLSAIFTT
# B4: SEQ ID NO 207 (designed binder)
# chain: MLPAPKNLVVSRVTEDSARLSWTAPDAAFDSFFIGYLEPQPPGEAIVLTVPGSERSYDLTGLKPGTEYNVTIQGVKGGTPSEPLSAISTT
# B5: SEQ ID NO 208 (designed binder)
# chain: MLPAPKNLVVSRVTEDSARLSWTAPDAAFDSFGIVYREPYVGGEAIVLTVPGSERSYDLTGLKPGTEYGVPIPGVKGGYDSGPLSAIFTT
# B6: SEQ ID NO 210 (designed binder)
# chain: MLPAPKNLVVSRVTEDSARLSWTAPDAAFDSFSIVYGERFVNGEAIVLTVPGSERSYDLTGLKPGTEYHVYIDGVKGGDLSWPLSAIFTT
# B7: SEQ ID NO 211 (designed binder)
# chain: MLPAPKNLVVSRVTEDSARLSWTAPDAAFDSFWINYYEAQPDGEAIVLTVPGSERSYDLTGLKPGTEYDVEIAGVKGGTASLPLSAIFTT
# B8: SEQ ID NO 212 (designed binder)
# chain: MLPAPKNLVVSRVTEDSARLSWTAPDAAFDSFIIEYWEQIGVGEAIVLTVPGSERSYDLTGLKPGTEYWVGIYGVKGGLLSSPLSAIFTT
# B9: SEQ ID NO 213 (designed binder)
# chain: MLPAPKNLVVSRVTEDSARLSWTAPDAAFDSFWIYYWEIERAGEAIRLDVPGSERSYDLTGLKPGTEYRVDIWGVKGGPTSGPLRATFTT
# B10: SEQ ID NO 214 (designed binder)
# chain: MLPAPKNLVVSRVTEDSARLSWTAPDAAFDSFAIPYGERQELGEAIVLTVPGSERSYDLTGLKPGTEYFVVIQGVKGGQPSYPLSAIFTT
# B11: SEQ ID NO 215 (designed binder)
# chain: MLPAPKNLVVSRVTEDSARLSWTAPDAAFDSFLIPYAETSPTGEAIVLTVPGSERSYDLTGLKPGTEYSVLIHGVKGGYPSSPLSAIFTT
# B12: SEQ ID NO 216 (designed binder)
# chain: MLPAPKNLVVSRVTEDSARLSWTAPDAAFDSFPIAYAEPTPSGEAIVLTVPGSERSYDLTGLKPGTEYSVLIHGVKGGGLSLPLSAIFTT
# B13: SEQ ID NO 48 (designed binder)
# chain: MLPAPKNLVVSRVTEDSARLSWTAPDAAFDSFVIEYFEQFNLGEAIVLTVPGSERSYDLTGLKPGTEYWVGIYGVKGGWLSHPLSAIFTT
# B14: SEQ ID NO 217 (designed binder)
# chain: MLPAPKNLVVSRVTEDSARLSWTAPDAAFDSFIIEYWEWYFAGEAIVLTVPGSERSYDLTGLKPGTEYTVWITGVKGGTWSEPLSAIFTT
# B15: SEQ ID NO 218 (designed binder)
# chain: MLPAPKNLVVSRVTEDSARLSWTAPDAAFDSFTILYYEMVGEGEAIVLTVPGSERSYDLTGPKPGTEYWVDIYGVKGGGWSRPLSAIFTT
# B16: SEQ ID NO 219 (designed binder)
# chain: MLPAPKNLVVSRVTEDSARLSWTAPDAAFDSFHIDYLELTYAGEAIVLTVPGSERSYDLTGLKPGTEYYVTIYGVKGGYPSSPLSAIFTT
# B17: SEQ ID NO 220 (designed binder)
# chain: MLPAPKNLVVSRVTEDSARLSWTAPDAAFDSFHIIYEEDGTEGEAIYLRVPGSERSYDLTGLKPGTEYEVDIEGVKGGVLSWPLFAEFTT
# B18: SEQ ID NO 221 (designed binder)
# chain: MLPAPKNLVVSRVTEDSARLSWTAPDAAFDSFHISYQEVVAEGEAIYLRVPGSERSYDLTGLKPGTEYYVLIHGVKGGYESKPLDASFTT
# B19: SEQ ID NO 222 (designed binder)
# chain: MLPAPKNLVVSRVTEDSARLSWTAPDAAFDSFYIEYFEWTGSGEAIVLTVPGSERSYDLTGLKPGTEYNVAIYGVKGGAVSYPLSAIFTT
# B20: SEQ ID NO 223 (designed binder)
# chain: MLPAPKNLVVSRVTEDSARLSWTAPDAAFDSFTIWYAEALGDGEAIVLTVPGSERSYDLTGLKPGTEYFVDIPGVKGGTRSSPLSAISTT
# B21: SEQ ID NO 224 (designed binder)
# chain: MLLAPKNLVVSRVTEDSARLSWTAPDAAFDSFRYLEQGLYGEAIVLTVPGSERSYDLTGLKPGTEYWVEIIGVKGGEYSTPLSAIFTT
# B22: SEQ ID NO 225 (designed binder)
# chain: MLPAPKNLVVSRVTEDSARLSWTAPDAAFDSFKIEYFEYVGYGEAIVLTVPGSERSYDLTGLKPGTEYYVAIYGVKGGWYSRPLSAIFTT
# B23: SEQ ID NO 226 (designed binder)
# chain: MLPAPKNLVVSRVTEDSARLSWTAPDAAFDSFHIIYEEVLTEGEAIYLRVPGSERSYDLTGLKPGTEYGVTIKGVKGGAYSIPLIATFTT
# B24: SEQ ID NO 49 (designed binder)
# chain: MLPAPKNLVVSRVTEDSARLSWTAPDAAFDSFGISYLEWWEDGEAIVLTVPGSERSYDLTGLKPGTEYWVSIAGVKGGKRSYPLSAIFTT
# B25: SEQ ID NO 227 (designed binder)
# chain: MLPAPKNLVVSRVTEDSARLSWTAPDAAFDSFRIRYLEWWNIGEAIVLTVPGSERSYDLTGLKPGTEYHVDIWGVKGGYSSYPLSAIFTT
# B26: SEQ ID NO 229 (designed binder)
# chain: MLPAPKNLVVSRVTEDSARLSWTAPDAAFDSFSIHYDEDWRRGEAIVLTVPGSERSYDLTGLKPGTEYLVEIPGVKGGKASYPLSAIFTT
# B27: SEQ ID NO 230 (designed binder)
# chain: MLPAPKNLVVSRVTEDSARLSWTAPDAAFDSFQIRYPKRWISGEAIVLTVPGSERSYDLTGLKPGTEYEVVIRGVKGGEYSWPLSAIFTT
# B28: SEQ ID NO 231 (designed binder)
# chain: MLPAPKNLVVSRVTEDSARLSWTAPDAAFDSFEIPYIETVALGEAIVLTVPGSERSYDLTGLKPGTEYYVEIYGVKGGSYSYPLSAISTT
# B29: SEQ ID NO 233 (designed binder)
# chain: MLPAPKNLVVSRVTEDSARLSWTAPDAAFDSFYIVYAEPIPNGEAIVLTVPGSERSYDLTGLKPGTEYSVLIHGVKGGRNSDPLSAIFTT
# B30: SEQ ID NO 235 (designed binder)
# chain: MLPAPKNLVVSRVTEDSARLSWTAPDAAFDSFSINYREWWSDGEAIYLPVPGSERSYDLTGLKPGTEYAVYIQGVKGGSRSFPLHAWFTT
# B31: SEQ ID NO 237 (designed binder)
# chain: MLPAPKNLVVSRVTEDSARLSWTAPDAAFDSFTILYGEMGTTGEAIVLTVPGSERSYDLTGLKPGTEYDVFIEGVKGGELSWPLSAIFTT
# B32: SEQ ID NO 238 (designed binder)
# chain: MLPAPKNLVVSRVTEDSARLSWTAPDAAFDSFKIFYQEFGGEAIVLTVPGSERSYDLTGLKPGTEYWVDIYGVKGGYTSSPLSAIFTT
# B33: SEQ ID NO 239 (designed binder)
# chain: MLPAPKNLVVSRVTEDSARLSWTAPDAAFDSFAITYYEGRWRGEAIVLTVPGSERSYDLTGLKPGTEYGVPIRGVKGGTGSLPLSAIFTT
# B34: SEQ ID NO 240 (designed binder)
# chain: MLPAPKNLVVSRVTEDSARLSWTAPDAAFDSFRIKYLEWWLGGEAIVLTVPGSERSYDLTGLKPGTEYWVDIQGVKGGVLSWPLSAIFTT
# B35: SEQ ID NO 241 (designed binder)
# chain: MLPAPKNLVVSRVTEDSARLSWTAPDAAFDSFNIYYYEWFVSGEAIVLTVPGSERSYDLTGLKPGTEYFVDIDGVKGGYRSRPLSAIFTT
# B36: SEQ ID NO 242 (designed binder)
# chain: MLPAPKNLVVSRVTEDSARLSWTAPDAAFDSFPIKYLEWWSWGEAIVLTVPGSERSYDLTGLKPGTEYRVPISGVKGGGMSGPLSAIFTT
# B37: SEQ ID NO 244 (designed binder)
# chain: MLPAPKNLVVSRVTEDSARLSWTAPDAAFDSFHIDYSEFHLRGEAIVLTVPGSERSYDLTGLKPGTEYLGIFGVKGGEQSGPLSAIFTT
# B38: SEQ ID NO 245 (designed binder)
# chain: MLPAPKNLVVSRITEDSARLSWTAPDAAFDSFGIAYNEGDHYGEAIVLTVPGSERSYDLTGLKPGTEYSVWIEGVKGGNLSYPLSAIFTT
# B39: SEQ ID NO 246 (designed binder)
# chain: MLPAPKNLVVSRVTEDSARLSWTAPDAAFDSFTIAYNEQNHYGEAIVLTVPGSERSYDLTGLKPGTEYGVWIEGVKGGTLSWPLSAIFTT
# B40: SEQ ID NO 51 (designed binder)
# chain: MLPAPKNLVVSRVTEDSARLSWTAPDAAFDSFFIKYIEWWADGEAIVLTVPGSERSYDLTGLKPGTEYLVEIYGVKGGKWSWPLSAIFTT
# B41: SEQ ID NO 247 (designed binder)
# chain: MLPAPKNLVVSRVTEDSARLSWTAPDAAFDSFYIEWTYKGEAIVLTVPGSERSYDLTGLKPGTEYFVGIPGVKGGKSSYPLSAIFTT
# Biological target: human serum albumin (human) (UniProt P02768)
# Test: screening ELISA
# Sequence of human serum albumin (human) (P02768 25-609 limits assumed): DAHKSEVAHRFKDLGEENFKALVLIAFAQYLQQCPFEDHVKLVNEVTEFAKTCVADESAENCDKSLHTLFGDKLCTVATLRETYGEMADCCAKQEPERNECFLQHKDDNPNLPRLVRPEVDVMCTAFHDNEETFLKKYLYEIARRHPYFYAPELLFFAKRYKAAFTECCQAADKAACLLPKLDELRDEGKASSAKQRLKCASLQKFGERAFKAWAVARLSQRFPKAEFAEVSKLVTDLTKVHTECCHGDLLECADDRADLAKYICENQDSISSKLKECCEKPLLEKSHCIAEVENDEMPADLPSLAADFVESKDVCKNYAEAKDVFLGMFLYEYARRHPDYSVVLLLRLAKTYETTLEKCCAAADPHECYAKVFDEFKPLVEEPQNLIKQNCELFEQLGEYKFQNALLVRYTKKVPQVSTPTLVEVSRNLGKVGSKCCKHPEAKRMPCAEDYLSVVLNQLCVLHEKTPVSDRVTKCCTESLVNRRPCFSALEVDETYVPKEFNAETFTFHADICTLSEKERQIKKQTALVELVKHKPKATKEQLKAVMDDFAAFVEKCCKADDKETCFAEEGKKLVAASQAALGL
row,Binder,HSA
1,B1,3350
2,B2,2650
3,B3,5200
4,B4,25600
5,B5,46700
6,B6,2250
7,B7,3000
8,B8,2250
9,B9,9800
10,B10,2200
11,B11,1750
12,B12,21800
13,B13,2800
14,B14,11800
15,B15,33800
16,B16,2600
17,B17,9400
18,B18,3650
19,B19,3950
20,B20,52000
21,B21,16500

row,Binder,HSA
1,B22,14100
2,B23,2850
3,B24,11500
4,B25,2300
5,B26,3700
6,B27,1900
7,B28,26500
8,B29,2600
9,B30,1350
10,B31,1850
11,B32,4250
12,B33,5050
13,B34,2050
14,B35,2200
15,B36,4900
16,B37,1650
17,B38,2900
18,B39,1400
19,B40,4240
20,B41,53000
